From PMC6353875, “The EZH2 SANT1 domain is a histone reader providing sensitivity to the modification state of the H4 tail” (Scientific Reports, 2019)

Target: EZH2 SRM-SANT1 (residues 141–251) (human) (UniProt Q15910)
Test: NMR titration; 15N-HSQC spectra of 0.05–0.10 mM 15N-EZH2 SRM-SANT1 with increasing concentrations of histone peptide; 25 °C; Kd from normalized CSPs, one-site model accounting for ligand depletion, averaged over significantly perturbed residues

Sequence of EZH2 SRM-SANT1 (residues 141–251) (human) (Q15910 141-251): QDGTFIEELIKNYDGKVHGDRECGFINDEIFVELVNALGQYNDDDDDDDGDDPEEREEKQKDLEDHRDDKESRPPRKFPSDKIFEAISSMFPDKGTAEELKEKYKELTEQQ

Kd: 300 µM
Substance: unmodified histone H4 peptide (residues 1–21) (from UniProt P62805 2-22)
